Results published in US12692524B2, “Sialyltransferases and their use in producing sialylated oligosaccharides” (Chr. Hansen A/S, priority 2017, dated 2026).

Legend:
[1] = In vitro kinetics (Km, Vmax), acceptor substrate LNT; assay type: biochemical; settings: 30° C., pH7.5, protein extract
Protocol: (§1) To rank the best performing sialyltransferases, their Km values for donor and acceptor substrates were determined in vitro. Escherichia coli BL21(DE3) strain #287 was used for overproduction of the enzymes. Cells were incubated in 100 ml 2YT medium in shaking flasks supplemented with 100 μg m^−1 ampicillin at 30° C. until an OD600 of 0.3 was reached. Then, 0.3 mM IPTG was added and the incubation was continued for 12 to 16 hours. Cells were harvested by centrifugation and mechanically disrupted in a defined volume of 50 mM Tris-HCl pH7.5 using glass beads. The protein extract was kept on ice until the assay started. The in vitro assay was carried out in a total volume of 50 μl including 50 mM Tris-HCl pH7.5, 5 mM MgCl2 and varying concentrations of CMP-Neu5Ac (0.05-30 mM) as well as of lactose or LNT (0.1-50 mM). The assay started with the addition of 35 to 750 μg protein extract. After 1 to 10 minutes of incubation at 30° C., the assay was inactivated at 95° C. for 5 minutes. Product formation was determined by mass spectrometry. Data were evaluated using the enzyme kinetic module of SigmaPlot v12.5 to calculate Km and Vmax.
(§2) Their kinetic parameters for CMP-Neu5Ac and LNT as well as lactose are depicted in Table 6.

[2] = In vitro sialylation of LNT by protein extracts, LST-a/-b quantified by LC-MS/MS; assay type: biochemical
Procedure, shortened: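 E. coli BL21(DE3) crude extracts overexpressing sialyltransferases (IPTG 0.3 mM, 12–16 h at 30 °C) incubated 16 h with 5 mM LNT and 10 mM CMP-Neu5Ac in 50 mM Tris-HCl pH 7.5, 5 mM MgCl2. LST-a and LST-b measured by HILIC LC-MS/MS, MRM in ESI negative mode, against commercial standards.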

[3] = In vitro kinetics (Km, Vmax), donor substrate CMP-Neu5Ac; assay type: biochemical; settings: 30° C., pH7.5, protein extract
Protocol: as §1, §2

[4] = In vivo screening in E. coli #1363/#1730 with lactose as acceptor, sialyllactose identified by TLC; assay type: cell-based, Escherichia coli BL21(DE3); settings: 1.5 mM lactose, 72 to 96 hours, qualitative via TLC
Procedure, shortened: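 E. coli BL21(DE3) #1363/#1730 expressing sialyltransferases were grown at 30 °C in mineral salts medium with 2% glucose and induced with 0.3 mM IPTG. After 1 h, 1.5 mM lactose was added, plus 1.5 mM sialic acid for #1730, and incubation ran 72–96 h. Cell lysates were analysed by silica TLC with thymol staining.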

[5] = In vitro kinetics (Km, Vmax), acceptor substrate lactose; assay type: biochemical; settings: 30° C., pH7.5, protein extract
Protocol: as §1, §2

B1: SiaT18: sialyltransferase of Photobacterium leiognathi JT-SHIZ-119, acc. AB500947, SEQ ID NO: 28 (protein, listed as Photobacterium leiognathi)
chain: MCNDNQNTVDVVVSTVNDNVIENNTYQVKPIDTPTTFDSYSWIQTCGTPILKDDEKYSLSFDFVAPELDQDEKFCFEFTGDVDGKRYVTQTNLTVVAPTLEVYVDHASLPSLQQLMKIIQQKNEYSQNERFISWGRIGLTEDNAEKLNAHIYPLAGNNTSQELVDAVIDYADSKNRLNLELNTNTAHSFPNLAPILRIISSKSNILISNINLYDDGSAEYVNLYNWKDTEDKSVKLSDSFLVLKDYFNGISSEKPSGIYGRYNWHQLYNTSYYFLRKDYLTVEPQLHDLREYLGGSLKQMSWDGFSQLSKGDKELFLNIVGFDQEKLQQEYQQSELPNFVFTGTTTWAGGETKEYYAQQQVNVVNNAINETSPYYLGREHDLFFKGHPRGGIINDIILGSFNNMIDIPAKVSFEVLMMTGMLPDTVGGIASSLYFSIPAEKVSFIVFTSSDTITDREDALKSPLVQVMMTLGIVKEKDVLFWSDLPDCSSGVCIAQY
Km [1]: 5.2 mM
Vmax LNT [1]: 0.14 µmol/min
Relative efficacy of sialyltransferases regarding in-vitro production of sialyllacto-N-tetraoses: LST-b ([2]; 5 mM LNT, 10 mM CMP-Neu5Ac, 16 hours, LC-MS/MS, relative quantity, n.d.: not detectable): 303
Ranking in the screening for sialylation of LNT ([2]; in words): sialylate LNT most efficiently among the tested α-2,6-sialyltransferases
Km [3]: 2.8 mM
Vmax CMP-Neu5Ac [3]: 0.21 µmol/min
Production of sialyllactose in-vivo [4]: 6′-SL
Km [5]: 7.6 mM
Vmax Lactose [5]: 0.21 µmol/min
